Experimental data published in publication PMC7881039.

What was measured:
papain = papain (UniProt P00784)
[1] = molecular target: human cystatin C (Cst-3), E. coli expressed (human) (UniProt P01034); assay: SEC; gel permeation on Superdex 200 in 20 mM Tris, 150 mM NaCl, pH 7.1, after cation exchange; monomer and dimer told by elution

UniProt P00784, sequence (P00784 134-345): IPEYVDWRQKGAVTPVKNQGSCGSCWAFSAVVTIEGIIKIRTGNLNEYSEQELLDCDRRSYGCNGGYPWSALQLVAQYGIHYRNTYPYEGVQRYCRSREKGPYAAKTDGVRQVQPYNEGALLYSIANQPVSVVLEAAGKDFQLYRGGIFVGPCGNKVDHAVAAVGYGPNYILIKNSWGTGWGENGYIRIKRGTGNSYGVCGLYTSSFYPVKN

inhibition of papain activity (colorimetric peptide substrate Z-Phe-Arg-pNA, pH 5.5) by 60 nM Cst-3 preincubated with equimolar heparin or HS hexasaccharide, against apo Cst-3 (papain)	stoichiometry N [1]	Substance
80%		murine cystatin C (Cst-3), E. coli expressed (from UniProt P21460 21-140) (natural protein)
	2	human cystatin C (Cst-3), E. coli expressed (from UniProt P01034 27-146) (natural protein)
